First the molecules themselves.
B1: NLV2 TCR alpha chain (CDR3α only) (parent)
chain: AGPMKTSYDKVI

One assay covers variants of B1. The experiment in a line: T-Switch: Jurkat TCRβ−/− cells expressing a CDR3 saturation-mutagenesis library, stained with two peptide-HLA-A*02:01 tetramers (original and novel peptide) plus anti-CD3, FACS-sorted into four gates, gDNA sequenced. Particulars: with both tetramers (double-negative gate, binds neither): HLA-A*02:01 with … and with …, tetramers 1 µg/mL, 30 min on ice, SP, DP and SW gates expanded about 10 days between rounds ('two to three rounds of selection' in the Methods), gate DN: OPPOSITE: higher = more of the variant in the gate that binds neither peptide = LESS binding (or no expression; inferred). Fold enrichment of the CDR3 variant in one FACS gate of a two-tetram, unresolved parent, parent is a CDR3 fragment, scale: fold enrichment, numbering: sequential-on-construct, sequence starts at 1.
Regarding […] (CDR3 as printed); G2F derived by comparing it with the table's wild-type CDR3 AGPMKTSYDKVI, the enrichment is 0.804.
The same measure, in the same setting: as for […] (CDR3 as printed); K5G derived by comparing it with the table's wild-type CDR3 AGPMKTSYDKVI, the figure is 0.602.
With […] (CDR3 as printed); D9L derived by comparing it with the table's wild-type CDR3 AGPMKTSYDKVI, the enrichment was 0.93.
For the variant […] (CDR3 as printed); K10E derived by comparing it with the table's wild-type CDR3 AGPMKTSYDKVI, the enrichment is 1.27.
Take […] (CDR3 as printed); A1T derived by comparing it with the table's wild-type CDR3 AGPMKTSYDKVI: the enrichment was determined as 0.871.
Consider […] (CDR3 as printed); K5M derived by comparing it with the table's wild-type CDR3 AGPMKTSYDKVI, for which the enrichment is 0.901.
In the case of […] (CDR3 as printed); K10C derived by comparing it with the table's wild-type CDR3 AGPMKTSYDKVI, the enrichment was found to be 1.06.
Turning to […] (CDR3 as printed); K5Q derived by comparing it with the table's wild-type CDR3 AGPMKTSYDKVI, the enrichment is 0.51.
On to […] (CDR3 as printed); M4A derived by comparing it with the table's wild-type CDR3 AGPMKTSYDKVI, for which the enrichment was 0.697.
[…] (CDR3 as printed); I12K derived by comparing it with the table's wild-type CDR3 AGPMKTSYDKVI: the enrichment was 0.703.
As for […] (CDR3 as printed); K5T derived by comparing it with the table's wild-type CDR3 AGPMKTSYDKVI, the enrichment came to 0.493.
As for […] (CDR3 as printed); K10T derived by comparing it with the table's wild-type CDR3 AGPMKTSYDKVI, the enrichment stood at 1.24.
Take […] (CDR3 as printed); K5E derived by comparing it with the table's wild-type CDR3 AGPMKTSYDKVI: the enrichment stood at 0.392.
With […] (CDR3 as printed); K5Y derived by comparing it with the table's wild-type CDR3 AGPMKTSYDKVI, the enrichment turned out to be 0.737.
Still for that read-out and setting: as for […] (CDR3 as printed); I12M derived by comparing it with the table's wild-type CDR3 AGPMKTSYDKVI, the figure is 0.63; as for […] (CDR3 as printed); K5N derived by comparing it with the table's wild-type CDR3 AGPMKTSYDKVI, 1.12; as for […] (CDR3 as printed); K5F derived by comparing it with the table's wild-type CDR3 AGPMKTSYDKVI, 0.857.
On the same count and under the same terms, next, […] (CDR3 as printed); G2V derived by comparing it with the table's wild-type CDR3 AGPMKTSYDKVI: 0.88; […] (CDR3 as printed); D9I derived by comparing it with the table's wild-type CDR3 AGPMKTSYDKVI: 1.01; […] (CDR3 as printed); A1C derived by comparing it with the table's wild-type CDR3 AGPMKTSYDKVI: 0.8.
Turning to […] (CDR3 as printed); I12A derived by comparing it with the table's wild-type CDR3 AGPMKTSYDKVI, the enrichment amounted to 0.854.
As to […] (CDR3 as printed); A1F derived by comparing it with the table's wild-type CDR3 AGPMKTSYDKVI, the enrichment came out at 0.884.
As to […] (CDR3 as printed); I12H derived by comparing it with the table's wild-type CDR3 AGPMKTSYDKVI, the enrichment was found to be 1.04.
As for […] (CDR3 as printed); D9Q derived by comparing it with the table's wild-type CDR3 AGPMKTSYDKVI, the enrichment is 0.673.
Same read-out and setting: as for […] (CDR3 as printed); G2D derived by comparing it with the table's wild-type CDR3 AGPMKTSYDKVI, the figure is 1.02.

The assay is the same for the next values; noted with them: with both tetramers (double-positive gate): HLA-A*02:01 with … and with …, tetramers 1 µg/mL, 30 min on ice, SP, DP and SW gates expanded about 10 days between rounds ('two to three rounds of selection' in the Methods), gate DP: higher = more of the variant in the gate that binds both peptides. Fold enrichment of the CDR3 variant in one FACS gate of a two-tetramer stain. SP/DP/SW gates were expanded and re-sorted bef, unresolved parent, parent is a CDR3 fragment, scale: fold enrichment, numbering: sequential-on-construct, sequence starts at 1.
With […] (CDR3 as printed); G2F derived by comparing it with the table's wild-type CDR3 AGPMKTSYDKVI, the enrichment came to 0.
As to […] (CDR3 as printed); K5G derived by comparing it with the table's wild-type CDR3 AGPMKTSYDKVI, the enrichment is 0.
On the same count and under the same terms, as for […] (CDR3 as printed); D9L derived by comparing it with the table's wild-type CDR3 AGPMKTSYDKVI, the figure is 0; as for […] (CDR3 as printed); K10E derived by comparing it with the table's wild-type CDR3 AGPMKTSYDKVI, 0.
Still for that read-out and setting: as for […] (CDR3 as printed); A1T derived by comparing it with the table's wild-type CDR3 AGPMKTSYDKVI, the figure is 0.
Consider […] (CDR3 as printed); K5M derived by comparing it with the table's wild-type CDR3 AGPMKTSYDKVI, for which the enrichment was determined as 0.
[…] (CDR3 as printed); K10C derived by comparing it with the table's wild-type CDR3 AGPMKTSYDKVI: the enrichment is 0.
As for […] (CDR3 as printed); K5Q derived by comparing it with the table's wild-type CDR3 AGPMKTSYDKVI, the enrichment was 0.
As to […] (CDR3 as printed); M4A derived by comparing it with the table's wild-type CDR3 AGPMKTSYDKVI, the enrichment amounted to 0.
For […] (CDR3 as printed); I12K derived by comparing it with the table's wild-type CDR3 AGPMKTSYDKVI, the enrichment was 0.
In the case of […] (CDR3 as printed); K5T derived by comparing it with the table's wild-type CDR3 AGPMKTSYDKVI, the enrichment was 0.931.
Still for that read-out and setting: as for […] (CDR3 as printed); K10T derived by comparing it with the table's wild-type CDR3 AGPMKTSYDKVI, the figure is 0; as for […] (CDR3 as printed); K5E derived by comparing it with the table's wild-type CDR3 AGPMKTSYDKVI, 0; as for […] (CDR3 as printed); K5Y derived by comparing it with the table's wild-type CDR3 AGPMKTSYDKVI, 0.
Consider […] (CDR3 as printed); I12M derived by comparing it with the table's wild-type CDR3 AGPMKTSYDKVI, for which the enrichment worked out at 0.
[…] (CDR3 as printed); K5N derived by comparing it with the table's wild-type CDR3 AGPMKTSYDKVI: the enrichment came out at 0.
On the same count and under the same terms, as for […] (CDR3 as printed); K5F derived by comparing it with the table's wild-type CDR3 AGPMKTSYDKVI, the figure is 0.
Consider […] (CDR3 as printed); G2V derived by comparing it with the table's wild-type CDR3 AGPMKTSYDKVI, for which the enrichment came to 0.
Regarding […] (CDR3 as printed); D9I derived by comparing it with the table's wild-type CDR3 AGPMKTSYDKVI, the enrichment amounted to 0.
Turning to […] (CDR3 as printed); A1C derived by comparing it with the table's wild-type CDR3 AGPMKTSYDKVI, the enrichment was 0.
As for […] (CDR3 as printed); I12A derived by comparing it with the table's wild-type CDR3 AGPMKTSYDKVI, the enrichment was 0.
With […] (CDR3 as printed); A1F derived by comparing it with the table's wild-type CDR3 AGPMKTSYDKVI, the enrichment is 0.
[…] (CDR3 as printed); I12H derived by comparing it with the table's wild-type CDR3 AGPMKTSYDKVI: the enrichment was 0.
With […] (CDR3 as printed); D9Q derived by comparing it with the table's wild-type CDR3 AGPMKTSYDKVI, the enrichment is 0.
Consider […] (CDR3 as printed); G2D derived by comparing it with the table's wild-type CDR3 AGPMKTSYDKVI, for which the enrichment is 0.

(Values after paper PMC13397619.)
